The chains are these.
T1: EsCas13d, nuclease-dead (Eubacterium siraeum, UniProt B0MS50, R295A;H300A;R849A;H854A)
T1 sequence: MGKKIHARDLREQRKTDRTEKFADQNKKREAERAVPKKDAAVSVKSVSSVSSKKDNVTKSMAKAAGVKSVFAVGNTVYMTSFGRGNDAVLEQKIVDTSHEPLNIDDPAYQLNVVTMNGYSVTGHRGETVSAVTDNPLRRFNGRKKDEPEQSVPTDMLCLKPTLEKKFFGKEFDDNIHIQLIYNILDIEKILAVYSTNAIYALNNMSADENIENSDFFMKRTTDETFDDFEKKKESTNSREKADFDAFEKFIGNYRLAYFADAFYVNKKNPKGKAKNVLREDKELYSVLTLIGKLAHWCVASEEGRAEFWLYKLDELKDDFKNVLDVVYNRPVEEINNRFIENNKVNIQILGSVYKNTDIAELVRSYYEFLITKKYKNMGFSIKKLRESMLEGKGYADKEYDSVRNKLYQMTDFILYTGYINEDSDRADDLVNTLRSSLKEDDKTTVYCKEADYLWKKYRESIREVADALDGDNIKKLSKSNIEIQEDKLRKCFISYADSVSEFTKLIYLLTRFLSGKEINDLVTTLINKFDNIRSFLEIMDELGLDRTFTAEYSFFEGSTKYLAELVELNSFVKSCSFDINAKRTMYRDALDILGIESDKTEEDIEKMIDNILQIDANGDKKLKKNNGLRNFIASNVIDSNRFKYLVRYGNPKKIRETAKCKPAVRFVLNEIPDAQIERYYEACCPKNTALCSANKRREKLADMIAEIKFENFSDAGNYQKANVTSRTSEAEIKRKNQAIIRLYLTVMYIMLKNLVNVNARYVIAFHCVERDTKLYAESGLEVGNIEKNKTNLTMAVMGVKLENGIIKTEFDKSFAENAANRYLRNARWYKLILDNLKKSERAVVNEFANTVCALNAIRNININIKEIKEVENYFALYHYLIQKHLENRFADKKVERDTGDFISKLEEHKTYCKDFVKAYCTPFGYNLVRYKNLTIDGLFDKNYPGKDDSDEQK

B1: target 1 G15A,A18U (mixed)
RNA 1: CACCCGUGCAAAAAUGCAGGGGUCUAAAACUGAGCGGAUAACCUCUCUAUGG
RNA 2: GGGAAUGGAUCCACAUCUACGAAUUCGUACCAUUGAAAGGUUAUCCGCUCACCGAGAUCGGAAGAGCACACGU
B2: target 1 insU 3' of 15,insC 3' of 3 (mixed)
RNA 1: B1 RNA 1
RNA 2: GGGAAUGGAUCCACAUCUACGAAUUCGUACCAUAGAGUAGGUUAUCCGCUCCACCGAGAUCGGAAGAGCACACGU
B3: target 1 A16C (mixed)
RNA 1: B1 RNA 1
RNA 2: B1 RNA 2 with U34A, A36C, A37G
B4: target 1 U8C,A18C (mixed)
RNA 1: B1 RNA 1
RNA 2: B1 RNA 2 with U34C, A37G, U44C
B5: target 1 insU 3' of 22,insA 3' of 8 (mixed)
RNA 1: B1 RNA 1
RNA 2: GGGAAUGGAUCCACAUCUACGAAUUCGUACUCAUAGAGAGGUUAUACCGCUCACCGAGAUCGGAAGAGCACACGU
B6: target 1 insC 3' of 19,insG 3' of 6 (mixed)
RNA 1: B1 RNA 1
RNA 2: B5 RNA 2 with U31C, C32A, A33U, U34C, A46C, C48G
B7: target 1 G12C,C21A (mixed)
RNA 1: B1 RNA 1
RNA 2: B1 RNA 2 with C31A, U34A, A37G, G40C
B8: target 1 G12U,U19A (mixed)
RNA 1: B1 RNA 1
RNA 2: B1 RNA 2 with U33A, U34A, A37G, G40U
B9: target 1 C2U,C6U (mixed)
RNA 1: B1 RNA 1
RNA 2: B1 RNA 2 with U34A, A37G, C46U, C50U
B10: target 1 U10G,A16G (mixed)
RNA 1: B1 RNA 1
RNA 2: B1 RNA 2 with U34A, A36G, A37G, U42G
B11: target 1 A1G,C6U (mixed)
RNA 1: B1 RNA 1
RNA 2: B1 RNA 2 with U34A, A37G, C46U, A51G
B12: target 1 U3A,A16G (mixed)
RNA 1: B1 RNA 1
RNA 2: B1 RNA 2 with U34A, A36G, A37G, U49A
B13: target 1 insC 3' of 22,insU 3' of 7 (mixed)
RNA 1: B1 RNA 1
RNA 2: B5 RNA 2 with U31C, A46C, C47U
B14: target 1 C6A,G15A (mixed)
RNA 1: B1 RNA 1
RNA 2: B1 RNA 2 with U34A, C46A
B15: target 1 A1U,C22A (mixed)
RNA 1: B1 RNA 1
RNA 2: B1 RNA 2 with C30A, U34A, A37G, A51U
B16: target 1 C2A,G15U (mixed)
RNA 1: B1 RNA 1
RNA 2: B1 RNA 2 with U34A, A37U, C50A
B17: target 1 insA 3' of 21,insA 3' of 10 (mixed)
RNA 1: B1 RNA 1
RNA 2: B5 RNA 2 with U31C, C32A, U45A, A46U
B18: target 1 A1U,A16C (mixed)
RNA 1: B1 RNA 1
RNA 2: B1 RNA 2 with U34A, A36C, A37G, A51U
B19: target 1 C7A,U19C (mixed)
RNA 1: B1 RNA 1
RNA 2: B1 RNA 2 with U33C, U34A, A37G, C45A
B20: target 1 insA 3' of 19,insC 3' of 5 (mixed)
RNA 1: B1 RNA 1
RNA 2: B2 RNA 2 with G35A, A36G, G37A, U38G, U50C, C51U
B21: target 1 insA 3' of 12,insU 3' of 6 (mixed)
RNA 1: B1 RNA 1
RNA 2: B2 RNA 2 with U38A, A39G, G41A, G48U, C49G, U50C, C51U
B22: target 1 insU 3' of 17,insC 3' of 17 (mixed)
RNA 1: B1 RNA 1
RNA 2: GGGAAUGGAUCCACAUCUACGAAUUCGUACCAUAGUCAGAGGUUAUCCGCUCACCGAGAUCGGAAGAGCACACGU
B23: target 1 insU 3' of 20,insG 3' of 3 (mixed)
RNA 1: B1 RNA 1
RNA 2: B2 RNA 2 with A34U, G35A, A36G, G37A, U38G, C51G
B24: target 1 insC 3' of 22,insA 3' of 21 (mixed)
RNA 1: B1 RNA 1
RNA 2: B22 RNA 2 with A32C, U33A, G35U, U36A, C37G
B25: target 1 A16U,C21U (mixed)
RNA 1: B1 RNA 1
RNA 2: B1 RNA 2 with C31U, U34A, A36U, A37G
B26: target 1 insG 3' of 22,insG 3' of 1 (mixed)
RNA 1: B1 RNA 1
RNA 2: B5 RNA 2 with U31G, A46C, C48G, G49C, C50U, U51C, C52A, A53G
B27: target 1 insC 3' of 19,insG 3' of 2 (mixed)
RNA 1: B1 RNA 1
RNA 2: B2 RNA 2 with A34C, G35A, A36G, G37A, U38G, C52G
B28: target 1 insA 3' of 12,insG 3' of 9 (mixed)
RNA 1: B1 RNA 1
RNA 2: B22 RNA 2 with U36A, C37G, A40G, G41A, G42U, U44A, A45G
B29: target 1 A18C,C21A (mixed)
RNA 1: B1 RNA 1
RNA 2: B1 RNA 2 with C31A, U34C, A37G
B30: target 1 insU 3' of 17,insU 3' of 9 (mixed)
RNA 1: B1 RNA 1
RNA 2: B22 RNA 2 with C37A, A38G, G39A, A40G, G42U, U44A, A45U
B31: target 1 A1G,A16C (mixed)
RNA 1: B1 RNA 1
RNA 2: B1 RNA 2 with U34A, A36C, A37G, A51G
B32: target 1 insA 3' of 22,insG 3' of 18 (mixed)
RNA 1: B1 RNA 1
RNA 2: B22 RNA 2 with C31A, A32C, U33A, A34U, G35A, U36G, C37G
B33: target 1 insC 3' of 15,insU 3' of 14 (mixed)
RNA 1: B1 RNA 1
RNA 2: B22 RNA 2 with U36A, C37G, A38C, G39A, A40U

Numbering of substitutions follows the chain as printed. Numbers in names are those of the source.

This data set has as its target T1, EsCas13d, nuclease-dead. The data set is described as follows: crRNA (strand 1, pre-loaded); Mg2+; 40 mM Tris-HCl pH 7.5, 150 mM NaCl, 6 mM MgCl2, 1 mM DTT, 0.1% Tween-20, 0.2 mg/ml BSA; 25 C; 10 min per concentration, then washed. The following applies: tags: His6-TwinStrep-SUMO cleaved; N-terminal SNAP kept (SNAP-Surface 488); label: 3' end held by stalled T7 RNA polymerase.
Take B1: the dissociation constant (Kd) – broadly, the free concentration of one partner at which half of the binding sites on the other are occupied at equilibrium, for simple one-to-one binding – worked out at 58 ± 11 nM.
Turning to B2, the Kd is 11.6 ± 1.1 nM.
In turn, B3 gave a Kd of 31 ± 2.7 nM.
In turn, B4 registered a dissociation constant Kd of 89 ± 9 nM.
The molecule B5 registered a dissociation constant Kd of 58 ± 5 nM.
The molecule B6 registered a Kd of 32 ± 4 nM.
The same measure for B7: 58 ± 11 nM; for B8: 52 ± 10 nM.
B9 displayed a Kd of 8.3 ± 0.6 nM.
Then B10, with 42.2 ± 3.5 nM; and B11, with 8.9 ± 0.7 nM; and B12, with 34.3 ± 2.9 nM.
In the case of B13, the Kd was found to be 47 ± 8 nM.
B14: the Kd is 11.9 ± 0.5 nM.
On to B15, for which binding was characterised by a dissociation constant (Kd) of 12.1 ± 0.9 nM.
In the case of B16, the Kd worked out at 29 ± 5 nM.
B17 yielded an equilibrium dissociation constant (Kd) of 28.2 ± 2.4 nM.
Molecule B18 had a dissociation constant (Kd) of 37 ± 4 nM.
With B19, the Kd worked out at 33.2 ± 3.5 nM.
In turn, B20 yielded a Kd of 48 ± 8 nM.
Turning to B21, the dissociation constant (Kd) stood at 64 ± 14 nM.
Regarding B22, the affinity, expressed as Kd, was 36 ± 5 nM.
The molecule B23 showed a Kd of 9.4 ± 0.6 nM.
As to B24, binding was put at a Kd of 20.7 ± 2.3 nM. This Kd is about 2.2-fold higher than that of the molecule before.
As for B25, the Kd was found to be 11.7 ± 1.4 nM.
The molecule B26 showed a Kd of 26.6 ± 2.1 nM.
In turn, B27 gave an equilibrium dissociation constant (Kd) of 33 ± 5 nM.
In turn, B28 yielded a Kd of 46.9 ± 3.5 nM. The Kd values of the last two molecules are within 1.5-fold of each other.
In the case of B29, the affinity, expressed as Kd, was 88 ± 23 nM.
The same measure for B30: 40 ± 8 nM; for B31: 36 ± 4 nM; for B32: 59 ± 13 nM.
In the case of B33, the Kd was determined as 28.5 ± 2.3 nM.

Values taken from paper PMC10786891, “Massively parallel profiling of RNA-targeting CRISPR-Cas13d”.
